Surface residence or internalization of RANK on primary osteoblasts exposed to 5 nM ligand (confocal microscopy, anti-RANK staining against membrane dye) data for two substances are collected here from US20030100068A1.

In the experiment the target is RANK (Receptor Activator of NF-kappa B) on primary murine osteoblasts (murine (primary murine osteoblasts)) (UniProt O35305). Description: cell-based or functional assay.
Chain of UniProt O35305 (O35305 31-625): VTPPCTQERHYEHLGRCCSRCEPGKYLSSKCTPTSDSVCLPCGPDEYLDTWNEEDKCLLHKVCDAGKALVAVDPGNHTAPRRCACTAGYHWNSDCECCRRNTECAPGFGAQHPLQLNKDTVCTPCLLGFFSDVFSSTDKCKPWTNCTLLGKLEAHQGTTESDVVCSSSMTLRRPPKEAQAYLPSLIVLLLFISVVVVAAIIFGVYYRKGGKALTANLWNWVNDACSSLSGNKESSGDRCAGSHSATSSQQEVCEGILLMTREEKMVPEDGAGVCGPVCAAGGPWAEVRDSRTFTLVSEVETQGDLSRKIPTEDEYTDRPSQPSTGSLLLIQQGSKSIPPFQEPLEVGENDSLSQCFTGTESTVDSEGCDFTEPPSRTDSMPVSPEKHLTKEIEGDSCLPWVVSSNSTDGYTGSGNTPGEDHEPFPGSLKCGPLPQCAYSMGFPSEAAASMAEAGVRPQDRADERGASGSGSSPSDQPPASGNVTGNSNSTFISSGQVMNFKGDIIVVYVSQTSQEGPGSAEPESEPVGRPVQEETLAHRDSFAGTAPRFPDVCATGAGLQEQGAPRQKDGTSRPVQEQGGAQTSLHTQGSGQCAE

“GST-RANKL (fusion product of the external domain of RANKL and glutathione S-transferase) (from UniProt P08515) (ligand)” gave a surface residence or internalization of RANK on primary osteoblasts exposed to 5 nM ligand (confocal microscopy, anti-RANK staining against membrane dye) of more than 1 h.

“cleaved RANKL (GST removed from GST-RANKL with human rhinovirus 3C protease) (ligand)” returned a surface residence or internalization of RANK on primary osteoblasts exposed to 5 nM ligand (confocal microscopy, anti-RANK staining against membrane dye) of less than 1 h.
